Laboratory results published in paper PMC8589032 (Journal of molecular biology, 2018).

Columns and labels:
ubiquitin [1] = molecular target: T1, ubiquitin (UniProt P0CG48 1-76); experiment: ITC
ubiquitin [2] = molecular target: T1, ubiquitin; experiment: NMR titration

Kd (ubiquitin [1]) [µM]	binding result (ubiquitin [2])	Binder
14.9 ± 3		ESNSDAGINLIALPAFSQVDPEVFAALPAELQRELKAAYDQRQ (domain or fragment, human, UniProt Q9UBZ9-1 998-1040, looked up) [REV1 UBM2 (residues E998 to Q1040)]
18.7 ± 1.6		REV1 UBM1-UBM2 (C958S C977A) (domain or fragment, human, UniProt Q9UBZ9-1 933-1040, looked up) PSPSQLDQSVLEALPPDLREQVEQVSAVQQAESHGDKKKEPVNGANTGILPQPVGTVLLQIPEPQESNSDAGINLIALPAFSQVDPEVFAALPAELQRELKAAYDQRQ
	binds	REV1 UBM1-UBM2 (residues 933-1040, wild-type) (domain or fragment, human, UniProt Q9UBZ9-1 933-1040, looked up) PSPSQLDQSVLEALPPDLREQVEQVCAVQQAESHGDKKKEPVNGCNTGILPQPVGTVLLQIPEPQESNSDAGINLIALPAFSQVDPEVFAALPAELQRELKAAYDQRQ
